The target in assay [1] is soluble CD16A (sCD16A) (human) (UniProt P08637). The assay is described as follows: SPR (BIAcore), receptor immobilised.
The target of assay [2] is T1, human serum albumin (HSA) (human, UniProt P02768 25-609).
T1 construct: also called HRP-human albumin
The assay is described as follows: Albumin Binding Assay; x axis hE16scFv-ABD Concentration (ug/ml); albumin taken as HSA as in Table 23.

Assay [3] has as its target T1, human serum albumin (HSA). The assay is described as above. The source holds these as a separate data set.
The target in assay [4] is T1, human serum albumin (HSA). The assay is described as follows: ABD-Binding Elisa; x axis Protein concentration (ug/ml); albumin taken as HSA as in Table 23.
Assay [5] concerns the target T1, human serum albumin (HSA). The assay is described as follows: HSA binding class (+++ 0.7-1.0; ++ 0.4-0.7; + 0.1-0.4).
Assay [6] has as its target T2, soluble CD32B (sCD32B) (human, UniProt P31994 43-217).
T2 construct: extracellular domain; also called FcγRIIB; soluble CD32B ectodomain
T2 sequence (looked up): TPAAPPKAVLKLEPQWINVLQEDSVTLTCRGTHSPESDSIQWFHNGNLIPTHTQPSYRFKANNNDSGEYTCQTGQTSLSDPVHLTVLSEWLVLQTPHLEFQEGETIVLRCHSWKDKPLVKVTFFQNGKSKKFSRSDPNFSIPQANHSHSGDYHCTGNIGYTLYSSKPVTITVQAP
The assay is described as follows: sandwich ELISA: sCD32B coated (sCD32B-Ig, 2 ug/ml), diabody titrated, labelled sCD16A as probe; signal needs both bindings. In general terms: ELISA stands for enzyme-linked immunosorbent assay.
Experimental: The binding of eluted and purified diabodies was characterized by ELISA assay, as described in 5.4.2. 50 ul/well of a 2 ug/ml solution of sCD32B-Ig was coated on 96-well Maxisorp plate in Carbonate buffer at 4° C. over night. The plate was washed three times with PBS-T (PBS, 0.1% Tween 20) and blocked by 0.5% BSA in PBS-T for 30 minutes at room temperature. […] The plate was then incubated at room temperature for 1 hour. After washing with PBS-T three times, 50 ul/well of 0.2 ug/ml sCD16A-Biotin was added to each well. The plate was again incubated at room temperature for 1 hour. After washing with PBS-T three times, 50 ul/well of a 1:5000 dilution of HRP conjugated streptavidin (Amersham Pharmacia Biotech) was used for detection. The HRP-streptavidin was allowed to incubate for 45 minutes at room temperature. The plate was washed with PBS-T three times and developed using 80 ul/well of TMB substrate. After a 10 minute incubation, the HRP-TMB reaction was stopped by adding 40 ul/well of 1% H₂SO₄.

Assay [7] concerns the target T2, soluble CD32B (sCD32B). The assay is described as follows: sandwich ELISA on conditioned medium: soluble FcRIIb-G2-Agly coated (100 ng/well), diabody titrated, FcRIIIa-G2-Biotin probe and streptavidin-HRP; signal needs both bindings.
Experimental: After three days in culture, the conditioned medium were harvested and characterized by binding ELISA.
100 ng/well of soluble FcRIIb-G2-Agly was coated on 96-well Maxisorp plate in Carbonate buffer at 40° C. overnight. Plate was washed three times with PBS/0.1% Tween20 and then blocked by 0.5% BSA in PBS/0.1% Tween 20 for 30 mins at room temperature before adding diabodies. […] The plate was incubated at room temperature for 1 hour. After washed with PBS/0.1% Tween20 three times, 10 ng/well of FcRIIIa-G2-Biotin was added to the plate. The plate was incubated at room temperature for 1 hour. After washed with PBS/0.1% Tween20 three times, 50 ul of 1:5000 dilution of HRP conjugated Streptavidin (Amersham Pharmacia Biotech) was used for detection. After 45 minutes incubation at room temperature, the plate was washed with PBS/0.1% Tween20 three times and developed using TMB substrate. After 10 minutes incubation, the reaction was stopped by 1% H2SO4. The OD450 nm was read by SOFTmax program.
Assay [8] has as its target T2, soluble CD32B (sCD32B). The assay is described as follows: sandwich ELISA on conditioned medium: soluble FcRIIb-G2-Agly coated, FcRIIIa-G2-Biotin probe and streptavidin-HRP.
Assay [9] addresses T3, soluble CD16A (sCD16A) (human, UniProt P08637 17-208).
T3 construct: extracellular domain; given only as soluble; immobilised in SPR, plate coat or biotin/HRP-labelled probe in ELISA; also called FcγRIIIA; sCD16A-Biotin
The assay is described as above.

Assay [10] has as its target T1, human serum albumin (HSA). The assay is described as follows: SPR sensorgrams with HSA; printed under the panel.
Assay [11] has as its target T2, soluble CD32B (sCD32B). The assay is described as follows: SPR sensorgrams with sCD32B; printed under the panel.
The target in a further assay is T4, soluble CD16A(158F) (human, UniProt P08637 17-208).
T4 construct: extracellular domain; also called CD16A(F158); sCD16A
T4 sequence (P08637 17-208): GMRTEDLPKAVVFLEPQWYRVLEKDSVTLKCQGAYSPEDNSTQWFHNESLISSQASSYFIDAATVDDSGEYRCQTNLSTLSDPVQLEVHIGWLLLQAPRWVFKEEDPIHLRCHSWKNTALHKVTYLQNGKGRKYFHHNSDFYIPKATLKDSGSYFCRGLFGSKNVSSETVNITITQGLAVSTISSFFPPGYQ
The assay is described as follows: SPR sensorgrams with sCD16A (158F per paragraph 834); printed under the panel.

Assay [12] has as its target T3, soluble CD16A (sCD16A). The assay is described as follows: dual ELISA: CD16A coated, DART titrated, biotinylated sCD32B detection, without HSA.
In assay [13] the target is T3, soluble CD16A (sCD16A). The assay is described as follows: dual ELISA: CD16A coated, DART titrated, biotinylated sCD32B detection, with 3 mg/ml HSA.

The text below walks through data of patent US20150175697A1 (MacroGenics, published 2015).

T3 sequence (P08637 17-208): as above
soluble CD16A (sCD16A) (human), sequence (P08637 17-208): as above

One may read the Kd as the concentration at which binding is half-saturated. Read a high Kd as a looser complex. With h3G8 scFv, the Kd in assay [1] is 38.7 nM.

As for LAEAKVLANRELDKYGVSDYYKNLADNAKTVEGVKALIDEILAALP (other, also called 65A/66D) [ABD3 I65A/N66D], in [2], the binding result was “binds”.

For LAEAKVLANRELDKYGVSDYYKNAANNAKTVEGVKALIDEILAALP (other, also called 64A/65A) [ABD3 L64A/I65A], in assay [3], the binding result is recorded as “binds”.

Turning to LAEAKVLANRELDKYGVSDYYKNAIDNAKTVEGVKALIDEILAALP (other, also called 64A/66D) [ABD3 L64A/N66D], the binding result in assay [3] is “binds”.

As to LAEAKVLANRELDKYGVSDYYKNLISNAKTVEGVKALIDEILAALP (other) [ABD3 N66S], in assay [4], the binding result is given as “binds”.

Take LAEAKVLANRELDKYGVSDYYKNAANNAKTAEGVKALIDEILAALP (other, also called 64A/65A/71A) [ABD3 L64A/I65A/V71A (ABD (AAA))]: the HSA binding in assay [5] was in the range of 0.4 to 0.7.

As to LAEAKVLANRELDKYGVSDYAKNLINNAKSVEGVKALIDEILAALP (other) [Y61A/T70S], the binding result in assay [4] is “binds”.

For the molecule LAEAKVLANRELDKYGVSDYAKNLISNAKTVEGVKALIDEILAALP (other, also called 61A/66S) [ABD3 Y61A/N66S], the binding result in [4] is reported as “binds”.

With LAEAKVLANRELDKYGVSDYAKNLIDNAKTVEGVKALIDEILAALP (other, also called 61A/66D) [ABD3 Y61A/N66D], the binding result in [3] is reported as “binds”.

As for LAEAKVLANRELDKYGVSDYYKNLINNAKSVEGVKALIDEILAALP (other) [ABD3 T70S], the HSA binding in [5] lay in the range of 0.7 to 1.

B1: h2B6-h3G8 covalent bispecific diabody (CBD) (bispecific antibody)
chain 1: EIVLTQSPDFQSVTPKEKVTFTCRTSQSIGTNIHWYQQKPDQSPKLLIKEVSESISGVPSRFSGSGSGTDFTLTINSLEAEDAATYYCQQSNTWPFTFGGGTKVEIKGGGSGGGGQVTLRESGPALVKPTQTLTLTCTFSGFSLSTSGMGVGWIRQPPGKALEWLAHIWWDDDKRYNPALKSRLTISKDTSKNQVVLTMTNMDPVDTATYYCAQINPAWFAYWGQGTLVTVSSLGGC
chain 2: DIVMTQSPDSLAVSLGERATINCKASQSVDFDGDSFMNWYQQKPGQPPKLLIYTTSNLESGVPDRFSGSGSGTDFTLTISSLQAEDVAVYYCQQSNEDPYTFGQGTKLEIKGGGSGGGGQVQLVQSGAEVKKPGASVKVSCKASGYTFTNYWIHWVRQAPGQGLEWIGVIDPSDTYPNYNKKFKGRVTMTVVVSTSTAYMELRSLRSDDTAVYYCARNGDSDYYSGMDYWGQGTTVTVSSLGGC
notes: covalent heterodimer of constructs 1 and 2; also called h2B6-h3G8 CBD; h2B6-h3G8 diabody
By EC50 (read off the curve) is commonly meant the midpoint of the concentration-response curve. Read a high EC50 (read off the curve) as a less potent agent. B1: in the assay with soluble CD32B (sCD32B) [6], the concentration giving a half-maximal response (EC50 (read off the curve)) was ~0.05 µg/mL.

B2: Hu2B6 4.5-Hu3G8 5.1 (bispecific antibody)
chain 1: DIVMTQSPDSLAVSLGERATINCKASQSVDFDGDSFMNWYQQKPGQPPKLLIYTTSNLESGVPDRFSGSGSGTDFTLTISSLQAEDVAVYYCQQSNEDPYTFGQGTKLEIKGGGSGGGGQVQLVQSGAEVKKPGASVKVSCKASGYTFTNYWIHWVRQAPGQGLEWIGVIDPSDTYPNYNKKFKGRVTMTVVVSTSTAYMELRSLRSDDTAVYYCARNGDSDYYSGMDYWGQGTTVTVSSLGGC
chain 2: EIVLTQSPDFQSVTPKEKVTFTCRTSQSIGTNIHWYQQKPDQSPKLLIKEVSESISGVPSRFSGSGSGTDFTLTINSLEAEDAATYYCQQSNTWPFTFGGGTKVEIKGGGSGGGGQVTLRESGPALVKPTQTLTLTCTFSGFSLSTSGMGVGWIRQPPGKALEWLAHIWWDDDKRYNPALKSRLTISKDTSKNQVVLTMTNMDPVDTATYYCAQINPAWFAYWGQGTLVTVSSLGGC
modifications: the two chains are joined by a disulfide between their C-terminal LGGC cysteines
notes: tested as conditioned medium of HEK-293 cells; also called Hu2B6 4.5-Hu3G8 5.1 biospecific diabody
On to B2, for which the 50% effective concentration (EC50 (read off the curve)) with soluble CD32B (sCD32B) [7] is ~0.05 µg/mL.

B3: Hu3G8 5.1 (other)
chain 1: DIVMTQSPDSLAVSLGERATINCKASQSVDFDGDSFMNWYQQKPGQPPKLLIYTTSNLESGVPDRFSGSGSGTDFTLTISSLQAEDVAVYYCQQSNEDPYTFGQGTKLEIKGGGSGGGGQVTLRESGPALVKPTQTLTLTCTFSGFSLSTSGMGVGWIRQPPGKALEWLAHIWWDDDKRYNPALKSRLTISKDTSKNQVVLTMTNMDPVDTATYYCAQINPAWFAYWGQGTLVTVSSLGGC
chain 2: DIVMTQSPDSLAVSLGERATINCKASQSVDFDGDSFMNWYQQKPGQPPKLLIYTTSNLESGVPDRFSGSGSGTDFTLTISSLQAEDVAVYYCQQSNEDPYTFGQGTKLEIKGGGSGGGGQVTLRESGPALVKPTQTLTLTCTFSGFSLSTSGMGVGWIRQPPGKALEWLAHIWWDDDKRYNPALKSRLTISKDTSKNQVVLTMTNMDPVDTATYYCAQINPAWFAYWGQGTLVTVSSLGGC
modifications: homodimer of two identical chains, joined by a disulfide between the C-terminal LGGC cysteines
notes: monospecific diabody, conditioned medium; also called Hu3G8 5.1 diabody
As to B3, the binding result in the assay with soluble CD32B (sCD32B) [8] is “no binding (tested: 0.5 ug/ml)”.

B4: Hu2B6 4.5 (other)
chain 1: EIVLTQSPDFQSVTPKEKVTFTCRTSQSIGTNIHWYQQKPDQSPKLLIKEVSESISGVPSRFSGSGSGTDFTLTINSLEAEDAATYYCQQSNTWPFTFGGGTKVEIKGGGSGGGGQVQLVQSGAEVKKPGASVKVSCKASGYTFTNYWIHWVRQAPGQGLEWIGVIDPSDTYPNYNKKFKGRVTMTVVVSTSTAYMELRSLRSDDTAVYYCARNGDSDYYSGMDYWGQGTTVTVSSLGGC
chain 2: EIVLTQSPDFQSVTPKEKVTFTCRTSQSIGTNIHWYQQKPDQSPKLLIKEVSESISGVPSRFSGSGSGTDFTLTINSLEAEDAATYYCQQSNTWPFTFGGGTKVEIKGGGSGGGGQVQLVQSGAEVKKPGASVKVSCKASGYTFTNYWIHWVRQAPGQGLEWIGVIDPSDTYPNYNKKFKGRVTMTVVVSTSTAYMELRSLRSDDTAVYYCARNGDSDYYSGMDYWGQGTTVTVSSLGGC
modifications: homodimer of two identical chains, joined by a disulfide between the C-terminal LGGC cysteines
notes: monospecific diabody, conditioned medium; also called Hu2B6 4.5 diabody
For B4, in the assay with soluble CD16A (sCD16A) [9], the binding result is “no binding (tested: 0.5 ug/ml)”.

B5: hCD16-hCD32B ABD-DART (bispecific antibody)
chain 1: DIVMTQSPDSLAVSLGERATINCKASQSVDFDGDSFMNWYQQKPGQPPKLLIYTTSNLESGVPDRFSGSGSGTDFTLTISSLQAEDVAVYYCQQSNEDPYTFGQGTKLEIKGGGSGGGGQVQLVQSGAEVKKPGASVKVSCKASGYTFTNYWIHWVRQAPGQGLEWIGVIDPSDTYPNYNKKFKGRVTMTVVVSTSTAYMELRSLRSDDTAVYYCARNGDSDYYSGMDYWGQGTTVTVSSGGCGGGKVAALKEKVAALKEKVAALKEKVAALKEGGGNS
chain 2: EIVLTQSPDFQSVTPKEKVTFTCRTSQSIGTNIHWYQQKPDQSPKLLIKEVSESISGVPSRFSGSGSGTDFTLTINSLEAEDAATYYCQQSNTWPFTFGGGTKVEIKGGGSGGGGQVTLRESGPALVKPTQTLTLTCTFSGFSLSTSGMGVGWIRQPPGKALEWLAHIWWDDDKRYNPALKSRLTISKDTSKNQVVLTMTNMDPVDTATYYCAQINPAWFAYWGQGTLVTVSSGGCGGGEVAALEKEVAALEKEVAALEKEVAALEKGGGNSLAEAKVLANRELDKYGVSDYYKNLINNAKTVEGVKALIDEILAALP
notes: also called DART ABD fusion; hCD16-hCD32B EK ABD-DART
By koff is commonly meant the first-order rate constant of dissociation. The low end stands for slow dissociation, the high end for fast dissociation. A word on the kon: it is a measure of how fast the partners come together. The low end stands for slower complex formation, the high end for faster complex formation. Take B5: the figures for the dissociation constant (Kd) (in assay [10]; in the assay with soluble CD32B (sCD32B) [11]; with soluble CD16A(158F)) were 7.1 nM, 30 nM and 137 nM, respectively. For the same molecule, the koff was determined as 0.00064 s⁻¹ in assay [10], 0.0072 s⁻¹ in the assay with soluble CD32B (sCD32B) [11] and 0.052 s⁻¹ with soluble CD16A(158F). The kon in [10] is 90000 M⁻¹ s⁻¹; in the assay with soluble CD32B (sCD32B) [11] it was 240000 M⁻¹ s⁻¹; with soluble CD16A(158F), 380000 M⁻¹ s⁻¹. Also, the “EC50 (read off the curve)” value with soluble CD16A (sCD16A) [12] is ~0.05 µg/mL; with soluble CD16A (sCD16A) [13], ~0.06 µg/mL.
